Results: publication PMC6506218
pKd: −log10 of the molar value.

Target: full-length AgrC-I Q305A in lipid nanodiscs (S. aureus)
Assay: fluorescence polarisation

Substance	pKd
AIP-I (peptide)	7.25
AIP-II (peptide)	6.82
